From patent publication CN106478818A (JIANGSU NOVOMAB BIOPHARMACEUTICALS INC, dated 2017)

T1: 重组TEM8蛋白 (recombinant TEM8 protein, 北京义翘神州生物技术有限公司) (UniProt Q9H6X2 33-321, limits assumed)
T1 construct: Bought recombinant protein coated on an ELISA plate; also called TEM8重组蛋白; 肿瘤内皮标记物8
T1 sequence (looked up): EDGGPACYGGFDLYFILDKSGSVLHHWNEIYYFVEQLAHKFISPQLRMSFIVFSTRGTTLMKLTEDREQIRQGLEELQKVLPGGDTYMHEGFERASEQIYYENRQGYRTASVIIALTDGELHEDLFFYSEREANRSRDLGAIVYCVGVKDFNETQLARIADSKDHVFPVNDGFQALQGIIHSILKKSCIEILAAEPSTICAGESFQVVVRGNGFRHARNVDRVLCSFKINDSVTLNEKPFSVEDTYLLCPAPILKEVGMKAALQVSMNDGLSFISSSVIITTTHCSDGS


How the values were obtained:
[1] = target: T2, TEM8 on TEM8稳定过表达细胞株 (CHO-K1 cells stably transfected with the full-length TEM8 gene) (human, UniProt Q9H6X2 33-564); test: cell-based binding on plated TEM8-overexpressing cells, anti-human-Eu, time-resolved fluorescence
T2 construct: also called TEM8过表达细胞; 细胞膜TEM8

[2] = target: T1, 重组TEM8蛋白 (recombinant TEM8 protein, …); test: ELISA, TEM8 protein coated, antibody in 1:4 serial dilution, anti-human IgG-HRP

| EC50 [1] | EC50 [2] | Binder |
| --- | --- | --- |
| 0.133 µg/mL | 0.0324 µg/mL | NMT802 (antibody, human IgG1, kappa, V domains shown, also called 单克隆抗体NMT802; NMT802抗体) VH: EVTLKESGPALVKPTQTLTLTCTFSGFSLSTSGMGVGWIRQPPGKALEWLAHIWWDDVKRYYPALKSRLTISKDTSKSQVVLTMTNMDPADTATYYCARIGYDWFPYWGQGTLVTVSS VL: DIQMTQSPSFLSASVGDRVTITCKASQNVGIAVAWYQQKPGKAPKLLIYSASNRYTGVPSRFSGSGSGTDFTLTISYLQSEDFATYYCQQYRSYPLTFGGGTKVEIKR |
| 0.765 µg/mL | 0.00544 µg/mL | NMT803 (antibody, V domains shown, also called 单克隆抗体NMT803) VH: EVTLKESGPALVKPTQTLTLTCTFSGFSLSTSGMGVGWIRQPPGKALEWLAHIWWDDVKQYYPALKSRLTISKDTSKSQVVLTMTNMDPVDTATYYCARIGYDWFPYWGQGTLVTVSS VL: DIQMTQSPSFLSASVGDRVTITCKASQNVGIAVAWYQQKPGKAPKLLIYSASNRYTGVPSRFSGSGSGTDFTLTISCLQSEDFATYYCQQYRFKPLTFGGGTKVEIK |
